Measurements taken from US6642368B1, “Programmed cell death and caspase-12” (The General Hospital Corporation, priority 1998, dated 2003).

What was measured:
caspase-12Δ2 = biological target: T1, caspase-12Δ2 (Mus musculus, UniProt O08736); assay: Inhibition of cleavage of pro-caspase-12 by purified caspase-12Δ2; assay type: biochemical; settings: preincubation 1 mM DTNB 25° C. 60 min or 2 mM iodoacetamide 0° C. 60 min
T1 construct: made in house; host or cells: E. coli BL21(DE3) pLys
Procedure: ICE, casp-2 and casp-3 were cloned into a pET-15b vector (Novagen) and their expression was induced in the presence of 0.2-0.3 mM IPTG (Wang, S., et a., J. Biol. Chem. 271:20580-20587 (1996); Cryns, V. L., et al., J. Biol. Chem. 271:31277-31282 (1996)). Bacterial lysates containing the ICE-like proteases were prepared as described (Wang, S., et al., J. Biol. Chem. 271:20580-20587 (1996); Cryns, V. L., et al., J. Biol. Chem. 271:31277-31282 (1996)). [^35S]-labeled proteins were prepared by in vitro transcription and translation using a TNT coupled reticulocyte lysate system (Promega) and [^35S]methionine (Amersham). Labeled proteins were incubated at 37° C. with purified caspase-12Δ2 or at 30° C. with E. coli lysates containing the caspase family members. The reaction mixture contained 25 mM Hepes (pH 7.5) with 5 mM EDTA, 5 mM dithiothreitol, 10% sucrose, 10 μg/ml leupeptin and 250 μM phenylmethylsulfonyl fluoride. Amount of proteins used for cleavage reaction were: 0.1 μg for partially purified caspase-12Δ2, 25-70 μg for E. coli lysate. […] Cleavage products were analyzed by either 10- or 15% SDS-polyacrylamide gel electrophoresis. […]

[1] = tested on: T2, pro-caspase-12 (caspase-12L, full-length precursor, 419 residues, 48 kDa)
T2 sequence: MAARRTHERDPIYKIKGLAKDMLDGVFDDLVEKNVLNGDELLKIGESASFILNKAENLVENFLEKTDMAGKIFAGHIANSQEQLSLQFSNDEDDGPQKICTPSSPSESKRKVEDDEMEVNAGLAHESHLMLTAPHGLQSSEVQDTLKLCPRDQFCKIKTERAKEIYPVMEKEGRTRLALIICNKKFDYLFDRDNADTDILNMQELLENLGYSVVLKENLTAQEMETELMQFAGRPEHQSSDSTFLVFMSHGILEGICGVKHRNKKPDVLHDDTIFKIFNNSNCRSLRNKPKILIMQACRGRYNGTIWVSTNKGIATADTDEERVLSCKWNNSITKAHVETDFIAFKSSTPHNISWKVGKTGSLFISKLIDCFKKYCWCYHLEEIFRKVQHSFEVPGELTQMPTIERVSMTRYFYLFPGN

[2] = tested on: T3, caspase-12Δ (Gly95-Asn419 of caspase-12L, with an artificial initiation codon), [35S]-labeled
T3 sequence: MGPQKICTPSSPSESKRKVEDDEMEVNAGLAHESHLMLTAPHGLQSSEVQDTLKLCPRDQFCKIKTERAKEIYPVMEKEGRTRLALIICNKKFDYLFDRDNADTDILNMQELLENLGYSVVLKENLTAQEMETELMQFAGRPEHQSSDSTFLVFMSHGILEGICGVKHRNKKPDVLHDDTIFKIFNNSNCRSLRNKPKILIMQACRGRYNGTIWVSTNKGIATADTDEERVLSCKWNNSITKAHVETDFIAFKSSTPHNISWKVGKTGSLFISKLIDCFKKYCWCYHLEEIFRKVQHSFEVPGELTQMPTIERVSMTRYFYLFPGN

Rat-1/bcl-2 = assay: Effect of cell death suppressor bcl-2 on caspase-12 killing activity; assay type: cell-based
Procedure: FIGS. 5A-5B. Effect of cell death suppressors on the killing activity of caspase-12. […] Cell death was assayed as described in FIG. 4C. […] The data from transfection of the parental cell line, Rat-1 (FIG. 4C), are included in the figures for comparison. The lacZ construct was also used for transfection as a control.
To determine if expression of bcl-2 and crmA can inhibit apoptosis induced by casp-12 overexpression, casp-12L-lacZ fusion construct was transfected into stable cell lines of Rat-1 that overexpresses either bcl-2 or crmA (Miura, M., et al., Cell 75:653-660 (1993)). Cell death was assayed as described above (Example 3). […] The magnitude of the bcl-2 suppression against toxicity of casp-12 overexpression was about 10% (60% for Rat-1, 50% for Rat-1/bcl-2) which is much smaller than that observed for ICE and casp-2 (FIG. 5A; Wang, L., et al., Cell 78:739-750 (1994)).

Rat-1 cells = assay: Cell death induced by transient overexpression of lacZ fusion constructs, X-gal staining; assay type: cell-based; settings: lacZ fusion construct, 24 hr after transfection
Source text: FIGS. 4A-4C. Cell death induced by overexpression of caspase-12. […] The round cells expressing the casp-12L-lacZ fusion proteins show condensed and fragmented nuclei. […] The data shown are the percentage of round blue cells among total number of blue cells counted. In each transfection, over 200 blue cells were randomly chosen and counted. The data of Rat-1 cells collected from at least three independent experiments. The constructs used were: casp-12L-lacZ, casp-12S-lacZ, casp-12Δ-lacZ, ICE-lacZ, lacZ. Rat embryonic fibroblast cells (REF) were also transfected with either casp-12L-lacZ or lacZ.
To examine if expression of caspase-12 induces apoptosis, a transient expression system was used to overexpress caspase-12 in mammalian cells. […] Transfected cells are easily detected by staining with X-gal because of the β-galactosidase activity of lacZ. Expression constructs of casp-12L and casp-12S fused with lacZ gene in pcDNA3 vector, which contains the cytomegalovirus (CMV) promoter, were generated. These expression constructs were introduced into Rat-1 cells by transfection, and the expression of the genes were examined 24 hr after transfection using X-gal reaction.
Rat-1, rat embryonic fibroblast cells, NG108-15, HeLa and COS-1 were maintained in culture at 37° C. with 5% CO2 in Dulbecco's modified Eagle's medium containing 10% (v/v) fetal bovine serum (BioWhittaker) and 50 units/ml penicillin and 50 μg/ml streptomycin (Sigma). The day before transfection, cells were seeded at a density of 1.3×10^4 cells/cm^2. Expression constructs were transferred to cells with either calcium phosphate or lipofectamine (GIBCO BRL) as previously described (Miura, M., et al., Cell 75:653-660 (1993); Kumar, S., et al., Genes and Development 8:1613-1626 (1994); Wang, L., et al., Cell 78:739-750 (1994)). The expression of chimeric genes in cells was detected by staining of cells with 5-bromo-4-chloro-3-indolyl β-D-galactoside (X-gal) as previously described (Miura, M., et al., Cell 75:653-660 (1993); Kumar, S., et al., Genes and Development 8:1613-1626 (1994); Wang, L., et al., Cell 78:739-750 (1994)). Immunostaining of transfected cells was done as previously described using mouse monoclonal anti-lacZ antibody (Miura, M., et al., Cell 75:653-660 (1993); Kumar, S., et al., Genes and Development 8:1613-1626 (1994); Wang, L., et al., Cell 78:739-750 (1994)).

NC(=O)CI [iodoacetamide]
inhibition of proteolytic activity of caspase-12Δ2 by pretreatment with thiol reagent (caspase-12Δ2): completely inhibited

caspase-3 (E. coli lysate, expressed from pET-15b)
in vitro cleavage of [35S]-labeled caspase-12 precursor by E. coli lysate containing the caspase [1]: caspase-2 and caspase-3 can cleave pro-caspase-12 protein, generating smaller fragments of about 40 kDa
in vitro cleavage of the [35S]-labeled truncated form [2]: Caspase-3 treatment of the truncated form did not produce any smaller fragments

O=C(O)c1cc(SSc2ccc([N+](=O)[O-])c(C(=O)O)c2)ccc1[N+](=O)[O-] [5,5′-dithio-bis(2-nitrobenzoic acid)]
inhibition of proteolytic activity of caspase-12Δ2 by pretreatment with thiol reagent (caspase-12Δ2): completely inhibited

Bcl-2: mammalian cell death suppressor, homolog of C. elegans ced-9
magnitude of bcl-2 suppression against toxicity of casp-12 overexpression (Rat-1/bcl-2; 60% for Rat-1 versus 50% for Rat-1/bcl-2): about 10%
inhibition of cell death induced by overexpression of casp-12 (Rat-1/bcl-2; Rat-1/bcl-2, FIG. 5A): only very weakly inhibited

caspase-2 (E. coli lysate, expressed from pET-15b)
in vitro cleavage of [35S]-labeled caspase-12 precursor by E. coli lysate containing the caspase [1]: Cleavage of pro-caspase-12 by caspase-2 generated a fragment of about 40 kDa at a lower cleavage efficiency, compared to caspase-3 digestion

B1: caspase-12S: alternatively spliced short form of caspase-12, 349 amino acid residues (SEQ ID NO:14) (protein)
chain: MAARRTHERDPIYKIKEFSNDEDDGPQKICTPSSPSESKRKVEDDEMEVNAGLAHESHLMLTAPHGLQSSEVQDTLKLCPRDQFCKIKTERAKEIYPVMEKEGRTRLALIICNKKFDYLFDRDNADTDILNMQELLENLGYSVVLKENLTAQEMETELMQFAGRPEHQSSDSTFLVFMSHGILEGICGVKHRNKKPDVLHDDTIFKIFNNSNCRSLRNKPKILIMQACRGRYNGTIWVSTNKGIATADTDEERVLSCKWNNSITKAHVETDFIAFKSSTPHNISWKVGKTGSLFISKLIDCFKKYCWCYHLEEIFRKVQHSFEVPGELTQMPTIERVSMTRYFYLFPGN
modifications: lacZ fusion
percentage of cell death (round blue cells among total blue cells) (Rat-1 cells): about 60%

B2: caspase-12Δ: truncated caspase-12, amino acid residues 95-419 of SEQ ID NO:2 (protein)
chain: GPQKICTPSSPSESKRKVEDDEMEVNAGLAHESHLMLTAPHGLQSSEVQDTLKLCPRDQFCKIKTERAKEIYPVMEKEGRTRLALIICNKKFDYLFDRDNADTDILNMQELLENLGYSVVLKENLTAQEMETELMQFAGRPEHQSSDSTFLVFMSHGILEGICGVKHRNKKPDVLHDDTIFKIFNNSNCRSLRNKPKILIMQACRGRYNGTIWVSTNKGIATADTDEERVLSCKWNNSITKAHVETDFIAFKSSTPHNISWKVGKTGSLFISKLIDCFKKYCWCYHLEEIFRKVQHSFEVPGELTQMPTIERVSMTRYFYLFPGN
modifications: lacZ fusion
percentage of cell death (round blue cells among total blue cells) (Rat-1 cells): 60%
